Legend:
Assay in all cases: pull-down
[1] = molecular target: T1, MBP-ORC1 CDK12 (human, UniProt Q13415 1-861, S258A | S273A)
T1 sequence: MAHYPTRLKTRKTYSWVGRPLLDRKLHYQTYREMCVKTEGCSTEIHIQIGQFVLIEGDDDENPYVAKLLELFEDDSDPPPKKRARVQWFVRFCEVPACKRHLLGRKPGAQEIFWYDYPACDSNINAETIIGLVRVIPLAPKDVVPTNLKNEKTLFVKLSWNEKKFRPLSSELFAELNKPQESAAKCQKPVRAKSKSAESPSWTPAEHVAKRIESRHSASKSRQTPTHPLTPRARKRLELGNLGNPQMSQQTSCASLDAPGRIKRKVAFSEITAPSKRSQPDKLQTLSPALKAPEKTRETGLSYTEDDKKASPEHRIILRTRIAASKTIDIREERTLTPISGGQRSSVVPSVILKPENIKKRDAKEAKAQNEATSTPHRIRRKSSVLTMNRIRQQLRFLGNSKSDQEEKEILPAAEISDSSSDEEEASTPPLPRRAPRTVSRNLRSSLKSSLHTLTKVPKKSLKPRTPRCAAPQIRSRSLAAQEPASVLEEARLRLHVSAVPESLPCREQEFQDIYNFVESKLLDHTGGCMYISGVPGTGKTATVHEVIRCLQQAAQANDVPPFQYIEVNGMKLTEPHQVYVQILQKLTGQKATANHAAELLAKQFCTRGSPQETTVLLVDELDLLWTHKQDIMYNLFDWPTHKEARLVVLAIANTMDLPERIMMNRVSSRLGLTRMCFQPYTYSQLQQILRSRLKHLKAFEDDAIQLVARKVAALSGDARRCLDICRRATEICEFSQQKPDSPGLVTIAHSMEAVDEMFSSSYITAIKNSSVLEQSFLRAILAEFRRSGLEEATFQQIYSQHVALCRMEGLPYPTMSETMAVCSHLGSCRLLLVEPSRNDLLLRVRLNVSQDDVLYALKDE

[2] = molecular target: T2, MBP-ORC1 CDK3 (human, UniProt Q13415 1-861, T375A)
T2 sequence: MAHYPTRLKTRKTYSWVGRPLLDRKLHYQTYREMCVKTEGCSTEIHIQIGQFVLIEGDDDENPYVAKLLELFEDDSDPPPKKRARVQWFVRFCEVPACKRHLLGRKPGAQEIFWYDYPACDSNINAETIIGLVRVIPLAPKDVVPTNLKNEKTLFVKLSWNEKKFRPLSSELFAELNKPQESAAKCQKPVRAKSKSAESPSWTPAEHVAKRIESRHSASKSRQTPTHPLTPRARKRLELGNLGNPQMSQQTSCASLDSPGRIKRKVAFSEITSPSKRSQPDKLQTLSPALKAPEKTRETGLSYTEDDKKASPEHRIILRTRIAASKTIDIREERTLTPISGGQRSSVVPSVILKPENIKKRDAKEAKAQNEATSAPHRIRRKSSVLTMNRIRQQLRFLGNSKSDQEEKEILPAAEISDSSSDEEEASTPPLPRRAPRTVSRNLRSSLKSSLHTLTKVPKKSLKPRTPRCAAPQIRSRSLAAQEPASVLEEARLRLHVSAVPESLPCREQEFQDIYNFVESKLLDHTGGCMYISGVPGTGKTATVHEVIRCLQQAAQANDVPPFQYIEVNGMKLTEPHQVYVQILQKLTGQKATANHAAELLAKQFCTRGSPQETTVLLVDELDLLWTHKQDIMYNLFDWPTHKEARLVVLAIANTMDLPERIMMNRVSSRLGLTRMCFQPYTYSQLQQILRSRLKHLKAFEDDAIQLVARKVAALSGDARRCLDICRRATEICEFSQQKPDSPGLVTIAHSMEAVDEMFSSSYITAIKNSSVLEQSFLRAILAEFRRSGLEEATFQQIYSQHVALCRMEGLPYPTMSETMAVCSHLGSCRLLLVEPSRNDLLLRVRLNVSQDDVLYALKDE

[3] = molecular target: T3, MBP-ORC2 (human, UniProt Q13416 1-577)
T3 sequence: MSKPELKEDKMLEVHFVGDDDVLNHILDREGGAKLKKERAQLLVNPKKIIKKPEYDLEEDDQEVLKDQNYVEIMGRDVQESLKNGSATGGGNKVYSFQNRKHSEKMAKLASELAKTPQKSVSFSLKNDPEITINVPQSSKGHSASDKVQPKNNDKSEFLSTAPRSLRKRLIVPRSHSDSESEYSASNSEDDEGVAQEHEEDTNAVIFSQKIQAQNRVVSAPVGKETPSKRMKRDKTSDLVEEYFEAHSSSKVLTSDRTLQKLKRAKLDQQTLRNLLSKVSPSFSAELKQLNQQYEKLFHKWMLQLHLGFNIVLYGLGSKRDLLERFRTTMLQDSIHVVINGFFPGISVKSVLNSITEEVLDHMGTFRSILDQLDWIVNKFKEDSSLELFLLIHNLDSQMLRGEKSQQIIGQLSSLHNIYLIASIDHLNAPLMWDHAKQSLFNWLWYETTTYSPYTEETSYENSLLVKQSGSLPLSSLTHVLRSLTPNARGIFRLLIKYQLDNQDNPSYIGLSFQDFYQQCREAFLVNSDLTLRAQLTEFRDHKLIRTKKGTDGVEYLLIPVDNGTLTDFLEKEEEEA

binding result [1]: binds
binding result [2]: binds
binding result [3]: binds
B1: GST-CDC6 (natural protein)
chain: MPQTRSQAQATISFPKRKLSRALNKAKNSSDAKLEPTNVQTVTCSPRVKALPLSPRKRLGDDNLCNTPHLPPCSPPKQGKKENGPPHSHTLKGRRLVFDNQLTIKSPSKRELAKVHQNKILSSVRKSQEITTNSEQRCPLKKESACVRLFKQEGTCYQQAKLVLNTAVPDRLPAREREMDVIRNFLREHICGKKAGSLYLSGAPGTGKTACLSRILQDLKKELKGFKTIMLNCMSLRTAQAVFPAIAQEICQEEVSRPAGKDMMRKLEKHMTAEKGPMIVLVLDEMDQLDSKGQDVLYTLFEWPWLSNSHLVLIGIANTLDLTDRILPRLQAREKCKPQLLNFPPYTRNQIVTILQDRLNQVSRDQVLDNAAVQFCARKVSAVSGDVRKALDVCRRAIEIVESDVKSQTILKPLSECKSPSEPLIPKRVGLIHISQVISEVDGNRMTLSQEGAQDSFPLQQKILVCSLMLLIRQLKIKEVTLGKLYEAYSKVCRKQQVAAVDQSECLSLSGLLEARGILGLKRNKETRLTKVFFKIEEKEIEHALKDKALIGNILATGLP

Source: article doi:10.1101/681668 (bioRxiv, 2019)
